In the supplement of paper PMC9112550, “Optimization of the antimicrobial peptide Bac7 by deep mutational scanning” (BMC Biology, 2022):

What follows are sequences tested on Escherichia coli TOP10 (assay: shrunken log2 fold change of peptide-encoding DNA abundance (4.5 h post-induction vs induction); higher = less antimicrobial activity (less host growth inhibition)). Details: time post-induction: 4.5 h; library: site-saturation at positions 5, 18, 19, 20.
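Also: peptides expressed intracellularly from a pBAD plasmid library in pooled LB shake-flask culture, induced with 0.3% L-arabinose, DNA abundance read by NGS, three biological replicates, DESeq2 with apeglm shrinkage.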

Sequence | shrunken log2 fold change
RRIRRRPPRLPRPRPRPDFCPRP | -0.0293
RRIRGRPPRLPRPRPRPAHKPRP | 0.551
RRIRHRPPRLPRPRPRPNQYPRP | -0.663
RRIRRRPPRLPRPRPRPYLSPRP | -0.288
RRIRVRPPRLPRPRPRPPQWPRP | 0.353
RRIRCRPPRLPRPRPRPEPNPRP | 0.265
RRIRFRPPRLPRPRPRPYHTPRP | -0.0117
RRIRARPPRLPRPRPRPQYKPRP | -0.303
RRIRARPPRLPRPRPRPFHNPRP | -0.625
RRIRYRPPRLPRPRPRPKNWPRP | -0.3
RRIRTRPPRLPRPRPRPPKNPRP | -0.0268
RRIRKRPPRLPRPRPRPYELPRP | -0.0181
RRIRVRPPRLPRPRPRPAFHPRP | -0.208
RRIRVRPPRLPRPRPRPPKWPRP | 0.133
RRIRCRPPRLPRPRPRPQREPRP | -0.0986
RRIRKRPPRLPRPRPRPRFIPRP | 0.346
RRIRKRPPRLPRPRPRPPEVPRP | 0.741
RRIRDRPPRLPRPRPRPEVSPRP | 0.3
RRIRCRPPRLPRPRPRPWKKPRP | -0.0238
RRIRMRPPRLPRPRPRPRATPRP | 1.57
RRIRHRPPRLPRPRPRPHSRPRP | 0.0183
RRIRTRPPRLPRPRPRPSYPPRP | -1.08
RRIRHRPPRLPRPRPRPFWDPRP | -0.0244
RRIRLRPPRLPRPRPRPQDHPRP | -0.203
RRIRMRPPRLPRPRPRPVGYPRP | 0.515

Sequence | shrunken log2 fold change
RRIRLRPPRLPRPRPRPLMIPRP | -0.288
RRIRWRPPRLPRPRPRPWYLPRP | -0.193
RRIRTRPPRLPRPRPRPCMKPRP | -0.332
RRIRKRPPRLPRPRPRPMCCPRP | -0.178
RRIRNRPPRLPRPRPRPLERPRP | 0.0661
RRIRVRPPRLPRPRPRPGVKPRP | 0.303
RRIRQRPPRLPRPRPRPYTNPRP | -0.149
RRIRTRPPRLPRPRPRPNAKPRP | -0.0531
RRIRLRPPRLPRPRPRPLESPRP | -0.212
RRIRVRPPRLPRPRPRPIGNPRP | -0.194
RRIRVRPPRLPRPRPRPAWPPRP | 0.537
RRIRVRPPRLPRPRPRPFRFPRP | 0.0201
RRIRCRPPRLPRPRPRPAEYPRP | -0.335
RRIRWRPPRLPRPRPRPKHWPRP | 0.4
RRIRNRPPRLPRPRPRPRSNPRP | -0.0866
RRIRSRPPRLPRPRPRPSIKPRP | -0.613
RRIRPRPPRLPRPRPRPMMMPRP | -0.167
RRIRGRPPRLPRPRPRPRSTPRP | 0.978
RRIRNRPPRLPRPRPRPFRAPRP | -0.00309
RRIRGRPPRLPRPRPRPYKMPRP | -0.234
RRIRNRPPRLPRPRPRPQWTPRP | -0.0119
RRIRGRPPRLPRPRPRPDRKPRP | 0.051
RRIRRRPPRLPRPRPRPQPPPRP | 0.413
RRIRQRPPRLPRPRPRPHQLPRP | 0.142
RRIRGRPPRLPRPRPRPMIQPRP | 0.522

Sequence | shrunken log2 fold change
RRIRGRPPRLPRPRPRPWRKPRP | 0.12
RRIRYRPPRLPRPRPRPHAVPRP | -0.4
RRIRRRPPRLPRPRPRPSYFPRP | -0.395
RRIRGRPPRLPRPRPRPQCPPRP | 0.337
RRIRERPPRLPRPRPRPQWMPRP | 0.0273
RRIRPRPPRLPRPRPRPCHKPRP | -0.0956
RRIRTRPPRLPRPRPRPGSVPRP | -0.179
RRIRPRPPRLPRPRPRPQEFPRP | 0.0774
RRIRTRPPRLPRPRPRPGLEPRP | 0.198
RRIRQRPPRLPRPRPRPQTTPRP | -0.0245
RRIRMRPPRLPRPRPRPQQYPRP | -0.017
RRIRFRPPRLPRPRPRPNMTPRP | -0.43
RRIRVRPPRLPRPRPRPSKAPRP | 0.0587
RRIRQRPPRLPRPRPRPGLEPRP | 0.134
RRIRDRPPRLPRPRPRPRPTPRP | 0.381
RRIRSRPPRLPRPRPRPPTFPRP | -0.0599
RRIRYRPPRLPRPRPRPRSMPRP | -0.622
RRIRLRPPRLPRPRPRPFGMPRP | -0.205
RRIRVRPPRLPRPRPRPTTAPRP | 0.181
RRIRFRPPRLPRPRPRPGEVPRP | 0.185
RRIRDRPPRLPRPRPRPVQVPRP | 0.011
RRIRWRPPRLPRPRPRPNWEPRP | -0.00663
RRIRDRPPRLPRPRPRPVGMPRP | 0.37
RRIRIRPPRLPRPRPRPKMTPRP | 0.123
RRIRWRPPRLPRPRPRPYKPPRP | -0.539

Sequence | shrunken log2 fold change
RRIRCRPPRLPRPRPRPELTPRP | 0.0136
RRIRARPPRLPRPRPRPANMPRP | -0.0999
RRIRSRPPRLPRPRPRPGAQPRP | 0.68
RRIRWRPPRLPRPRPRPYVKPRP | -0.436
RRIRARPPRLPRPRPRPIITPRP | -0.298
RRIRHRPPRLPRPRPRPSTAPRP | -0.24
RRIRMRPPRLPRPRPRPMIFPRP | 0.0369
RRIRIRPPRLPRPRPRPEQHPRP | -0.0723
RRIRKRPPRLPRPRPRPIHSPRP | -0.00784
RRIRSRPPRLPRPRPRPIMCPRP | -0.572
RRIRERPPRLPRPRPRPLHVPRP | -0.268
RRIRERPPRLPRPRPRPPSGPRP | 0.275
RRIRWRPPRLPRPRPRPIPTPRP | -0.0487
RRIRARPPRLPRPRPRPYPLPRP | -0.127
RRIRTRPPRLPRPRPRPPFIPRP | -0.177
RRIRQRPPRLPRPRPRPSVRPRP | -0.309
RRIRNRPPRLPRPRPRPADIPRP | -0.183
RRIRQRPPRLPRPRPRPLANPRP | -0.00739
RRIRERPPRLPRPRPRPATSPRP | 0.0131
RRIRKRPPRLPRPRPRPRVCPRP | 0.282
RRIRMRPPRLPRPRPRPNFCPRP | 0.0533
RRIRYRPPRLPRPRPRPKERPRP | -0.002
RRIRERPPRLPRPRPRPEMQPRP | -0.0367
RRIRKRPPRLPRPRPRPEYFPRP | 0.084
RRIRYRPPRLPRPRPRPYTYPRP | -0.438
